Assay results from the supplement of paper PMC10567573.

B1: CRYL1 (parent)
chain: RNALENIRKEMKLLEQAGSLKGSL

Variants of: B1
Assay: protein stability index of a GFP-peptide fusion (GPS, HEK-293T) (PSI 1-6); higher = more stable
Details: c terminus: a fixed tail appended
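Also: lentivirally expressed fusions sorted by FACS into six bins by GFP to DsRed ratio, PSI derived from sequencing read proportions per bin multiplied by bin number.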

| Variant | protein stability index |
| --- | --- |
| RNALENIRKEGKLLEQAGSLKGSL | 4 |
| RNALENIRKEFKLLEQAGSLKGSL | 3.13 |
| RNALENIRKEKKLLEQAGSLKGSL | 2.79 |
| RNALENIRKEHKLLEQAGSLKGSL | 4.45 |
| RNALENIRKEDKLLEQAGSLKGSL | 4.34 |
| RNALENIRKEEKLLEQAGSLKGSL | 4.45 |
| RNALMNIRKEMKLLEQAGSLKGSL | 3 |
| RNALINIRKEMKLLEQAGSLKGSL | 3.57 |
| RNALANIRKEMKLLEQAGSLKGSL | 2.68 |
| RNALDNIRKEMKLLEQAGSLKGSL | 3.85 |
| RNALNNIRKEMKLLEQAGSLKGSL | 2.46 |
| RNALFNIRKEMKLLEQAGSLKGSL | 2.5 |
| RNALHNIRKEMKLLEQAGSLKGSL | 2.88 |
| RNALSNIRKEMKLLEQAGSLKGSL | 2.78 |
| RNALYNIRKEMKLLEQAGSLKGSL | 1.97 |
| RNALPNIRKEMKLLEQAGSLKGSL | 3.7 |
| RNALKNIRKEMKLLEQAGSLKGSL | 2.7 |
| RNALLNIRKEMKLLEQAGSLKGSL | 2.55 |
| RNALGNIRKEMKLLEQAGSLKGSL | 3.21 |
| RNALWNIRKEMKLLEQAGSLKGSL | 2.69 |
| RNALVNIRKEMKLLEQAGSLKGSL | 2.82 |
| RNALRNIRKEMKLLEQAGSLKGSL | 3.06 |
| RNALQNIRKEMKLLEQAGSLKGSL | 3.34 |
| RNALCNIRKEMKLLEQAGSLKGSL | 2.98 |

| Variant | protein stability index |
| --- | --- |
| HNALENIRKEMKLLEQAGSLKGSL | 3.47 |
| LNALENIRKEMKLLEQAGSLKGSL | 3.21 |
| CNALENIRKEMKLLEQAGSLKGSL | 2.87 |
| MNALENIRKEMKLLEQAGSLKGSL | 3.11 |
| DNALENIRKEMKLLEQAGSLKGSL | 3.7 |
| ANALENIRKEMKLLEQAGSLKGSL | 2.86 |
| ENALENIRKEMKLLEQAGSLKGSL | 3.65 |
| QNALENIRKEMKLLEQAGSLKGSL | 3.65 |
| WNALENIRKEMKLLEQAGSLKGSL | 3.34 |
| INALENIRKEMKLLEQAGSLKGSL | 2.69 |
| VNALENIRKEMKLLEQAGSLKGSL | 3.53 |
| NNALENIRKEMKLLEQAGSLKGSL | 3.83 |
| KNALENIRKEMKLLEQAGSLKGSL | 3.77 |
| PNALENIRKEMKLLEQAGSLKGSL | 3.37 |
| FNALENIRKEMKLLEQAGSLKGSL | 2.46 |
| YNALENIRKEMKLLEQAGSLKGSL | 3.04 |
| GNALENIRKEMKLLEQAGSLKGSL | 3.82 |
| SNALENIRKEMKLLEQAGSLKGSL | 3.48 |
| TNALENIRKEMKLLEQAGSLKGSL | 3.87 |
| RNALENPRKEMKLLEQAGSLKGSL | 4.22 |
| RNALENERKEMKLLEQAGSLKGSL | 4.02 |
| RNALENVRKEMKLLEQAGSLKGSL | 3.53 |
| RNALENFRKEMKLLEQAGSLKGSL | 2.37 |
| RNALENLRKEMKLLEQAGSLKGSL | 2.48 |

| Variant | protein stability index |
| --- | --- |
| RNALENYRKEMKLLEQAGSLKGSL | 3.67 |
| RNALENARKEMKLLEQAGSLKGSL | 4.35 |
| RNALENNRKEMKLLEQAGSLKGSL | 4.37 |
| RNALENSRKEMKLLEQAGSLKGSL | 3.69 |
| RNALENWRKEMKLLEQAGSLKGSL | 3.15 |
| RNALENKRKEMKLLEQAGSLKGSL | 5.08 |
| RNALENTRKEMKLLEQAGSLKGSL | 3.9 |
| RNALENDRKEMKLLEQAGSLKGSL | 4.75 |
| RNALENCRKEMKLLEQAGSLKGSL | 2.3 |
| RNALENHRKEMKLLEQAGSLKGSL | 3.74 |
| RNALENMRKEMKLLEQAGSLKGSL | 3.29 |
| RNAKENIRKEMKLLEQAGSLKGSL | 3.67 |
| RNACENIRKEMKLLEQAGSLKGSL | 4.05 |
| RNAIENIRKEMKLLEQAGSLKGSL | 3.21 |
| RNAMENIRKEMKLLEQAGSLKGSL | 3.37 |
| RNADENIRKEMKLLEQAGSLKGSL | 5 |
| RNAFENIRKEMKLLEQAGSLKGSL | 2.92 |
| RNAGENIRKEMKLLEQAGSLKGSL | 3.14 |
| RNASENIRKEMKLLEQAGSLKGSL | 4.36 |
| RNATENIRKEMKLLEQAGSLKGSL | 4.37 |
| RNAWENIRKEMKLLEQAGSLKGSL | 3.16 |
| RNANENIRKEMKLLEQAGSLKGSL | 4.39 |
| RNAAENIRKEMKLLEQAGSLKGSL | 3.93 |
| RNAHENIRKEMKLLEQAGSLKGSL | 4.15 |

| Variant | protein stability index |
| --- | --- |
| RNAEENIRKEMKLLEQAGSLKGSL | 4.65 |
| RNAQENIRKEMKLLEQAGSLKGSL | 4.75 |
| RNAVENIRKEMKLLEQAGSLKGSL | 3.65 |
| RNALENIPKEMKLLEQAGSLKGSL | 4.29 |
| RNALENITKEMKLLEQAGSLKGSL | 4.19 |
| RNALENILKEMKLLEQAGSLKGSL | 1.65 |
| RNALENIEKEMKLLEQAGSLKGSL | 2.58 |
| RNALENIQKEMKLLEQAGSLKGSL | 3.92 |
| RNALENIIKEMKLLEQAGSLKGSL | 1.84 |
| RNALENIYKEMKLLEQAGSLKGSL | 2.45 |
| RNALENIKKEMKLLEQAGSLKGSL | 3.04 |
| RNALENIDKEMKLLEQAGSLKGSL | 4.49 |
| RNALENIMKEMKLLEQAGSLKGSL | 2.92 |
| RNALENIHKEMKLLEQAGSLKGSL | 4.05 |
| RNALENISKEMKLLEQAGSLKGSL | 3.87 |
| RNALENIFKEMKLLEQAGSLKGSL | 2.07 |
| RNALENIVKEMKLLEQAGSLKGSL | 3.25 |
| RNALENIWKEMKLLEQAGSLKGSL | 2.3 |
| RNALENICKEMKLLEQAGSLKGSL | 2.84 |
| RNALENIGKEMKLLEQAGSLKGSL | 3.77 |
| RNALENIAKEMKLLEQAGSLKGSL | 3.72 |
| RNALENINKEMKLLEQAGSLKGSL | 4.19 |
